Changes are numbered by the printed parent chain.

Test in all cases: cell-based or functional assay
The target in assay [1] is T1, GITR expressed on the effector cell line of the reporter gene assay.
In assay [2] the target is T1, GITR expressed on the effector cell …. The source holds these as a separate data set.
Assay [3] shares this target. This is another data set of the same source.

B1: anti-GITR mouse monoclonal antibody 163H12G7 (antibody, V domains shown)
VH: QVQLQQSGAELASPGASVKMSCKASGYTFSTYTVHWVKQRPGQGLEWIGYINPASGYTNYNQKFKDRATLTADRSSTTAYMQLSGLTSEDSAVFYCARWSYWYFDVWGTGTTVTVSS
VL: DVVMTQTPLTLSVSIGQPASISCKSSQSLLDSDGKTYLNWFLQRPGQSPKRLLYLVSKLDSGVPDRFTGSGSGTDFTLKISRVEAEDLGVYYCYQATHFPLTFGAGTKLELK
With B1, the “EC50, GITR functional reporter gene assay (luciferase)” value (“EC50 … (luciferase)” for short) in assay [1] was determined as 0.0137 µg/mL.

B2: humanized antibody 270C5C10 VH1.2 + VL1 (antibody, V domains shown)
VH: QVQLVQSGAEVKKPGASVKVSCKASGYTFTDNYMNWVRQAPGQSLEWIGDINPNNGGSRYKEKFKDRATLTVDTSIRTAYMELSRLRSDDTAVYYCANPGSYGFAYWGQGTLVTVSS
VL: DVVMTQSPLSLPVTLGQPASISCKSSQSLLDSDGRTYLNWFQQRPGQSPRRLIYLVSQLDSGVPDRFSGSGSGTDFTLKISRVEAEDVGVYYCWQGTHFPWTFGGGTKLEIK
Consider B2, for which the “EC50, GITR functional reporter gene assay (GenScript, NFkB luciferase)” value (from here on “EC50 … (GenScript, NFkB luciferase)”) in assay [2] was determined as 0.0745 µg/mL.

B3: humanized antibody 270C5C10 VH1.4 + VL1 (antibody, V domains shown)
VH: B2 VH with V37A, A40S
VL: B2 VL
B3: the “EC50 … (GenScript, NFkB luciferase)” value in assay [2] was ~0.0355 µg/mL.

B4: anti-GITR mouse monoclonal antibody 45F1F3 (antibody, V domains shown)
VH: DVQLQESGPGLVKPSQSLSLTCTVTGYSITIDYAWNWIRQFPGNKLEWMGYISNSGYTSYNPSLKSRISFTRDTSKNQFFLQLNSVTPEDSATYYCTRSGHYDLFDYWGQGTTLTVSS
VL: DVVMTQAPLTLSVTIGQPASISCKSSQSLFDRDGKTYLSWLLERPGQSPKRLIYLVSNLDSGVPDRFTGSGSGTDFTLKISRVEAEDLGVYYCWQGTHFPYTFGGGTKVEMK
For B4, in assay [1], the “EC50 … (luciferase)” value was determined as 0.0145 µg/mL.

B5: chimeric antibody 45F1F3 (human IgG1) (antibody, V domains shown)
VH: B4 VH
VL: DVVMTQAPLTLSVTIGQPASISCKSSQSLFDRDGKTYLSWLLERPGQSPKRLIYLVSNLDSGVPDRFTGSGSGTDFTLKISRVEAEDLGVYYCWQGTHFPYTFGGGTKVEMKR
Turning to B5, in assay [3], the “Bottom, GITR functional reporter gene assay” value was found to be 16300; the “EC50, GITR functional reporter gene assay” value came to 0.0145 µg/mL; the “LogEC50, GITR functional reporter gene assay” value was -1.84; the “Span, GITR functional reporter gene assay” value is 32000. Further, in assay [3], the “Top, GITR functional reporter gene assay” value was found to be 48300. The “EC50 … (GenScript, NFkB luciferase)” value in assay [2] is ~1.09 µg/mL.

B6: humanized antibody 45F1F3 VH1.3 + VL1.1 (antibody, V domains shown)
VH: QVQLQESGPGLVKPSQTLSLTCTVTGYSITIDYAWNWIRQPPGKGLEWMGYISNSGYTSYNPSLKSRVTISRDTSKNQFFLKLSSVTAADTAVYYCTRSGHYDLFDYWGQGTTVTVSS
VL: B4 VL with A7S, T10S, S12P, I15L, E43Q, K50R, T68S, L88V, M111I
Take B6: the “EC50 … (GenScript, NFkB luciferase)” value in assay [2] amounted to 1.08 µg/mL.

B7: humanized antibody 45F1F3 VH1.4 + VL1.1 (antibody, V domains shown)
VH: B6 VH with Q1D, V68I, I70F
VL: B4 VL with A7S, T10S, S12P, I15L, E43Q, K50R, T68S, L88V, M111I
Consider B7, for which the “EC50 … (GenScript, NFkB luciferase)” value in assay [2] came out at 1.09 µg/mL.

B8: chimeric antibody 270C5C10(Ha-L) (human IgG1) (antibody, V domains shown)
VH: EVQLQQSGPEVVKPGASVKISCKASGYTFTDNYMNWAKQSQGKSLEWIGDINPNNGGSRYKEKFKDKATLTVDKSSRTAYMELRSLTSEDSAVYYCANPGSYGFAYWGQGTLVTVSA
VL: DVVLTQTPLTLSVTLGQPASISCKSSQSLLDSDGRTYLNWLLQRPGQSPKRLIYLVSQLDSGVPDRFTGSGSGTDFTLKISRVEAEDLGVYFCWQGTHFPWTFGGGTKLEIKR
Turning to B8, in assay [3], the “Bottom, GITR functional reporter gene assay” value amounted to 18000; the “EC50, GITR functional reporter gene assay” value was 0.386 µg/mL; the “LogEC50, GITR functional reporter gene assay” value was -1.41; the “Span, GITR functional reporter gene assay” value turned out to be 31500. The “Top, GITR functional reporter gene assay” value in assay [3] amounted to 49500. Besides, the “EC50 … (GenScript, NFkB luciferase)” value in assay [2] was ~0.0374 µg/mL.

B9: anti-GITR mouse monoclonal antibody 223F12C4 (antibody, V domains shown)
VH: QVQLQQSGAELVKPGASVKVSCKASGYSFTSYWIHWVKQRPGQGLEWIGRIHPSDGDIDHNEKFKGKATLTVDKSSSTAYMQLTSLTSEDSAVYYCLCYIMDYWGQGTSVTVSS
VL: DIQMNQSPSSLSASLGDTIAITCHASQNINVWLSWYQQKPGNIPKLLIYKAAKLQTGVPSRFSGSGSGTGFTLTISSLQPEDIATYYCHQGQDYPLTFGAGTKLELK
On to B9, for which the “EC50 … (luciferase)” value in assay [1] was 0.151 µg/mL.

B10: humanized antibody 225H7D12 VH1.1 + VL1.2 (antibody, V domains shown)
VH: QVQLVQSGAEVKKPGASVKVSCKTTGYRFTGYWIEWVRQAPGQGLEWIGEILPGSGVSNNNEKFRDRATMTADTSISTAYMELSRLRSDDTAVYYCARKASYYTMDYWGQGTLVTVSS
VL: DIQMTQSPSSLSASVGDRVTITCTASSSVSSFYFHWYQQKPGKAPKLWIYSISNLASGVPSRFSGSGSGTSYTLTISSLQPEDFATYYCHQYHRSPRTFGGGTKLEIK
Turning to B10, the “EC50 … (GenScript, NFkB luciferase)” value in assay [2] stood at 1.17 µg/mL.

B11: humanized antibody 225H7D12 VH1.3 + VL1.2 (antibody, V domains shown)
VH: B10 VH with T24A, T25S, R38K, S77N
VL: B10 VL
Regarding B11, in assay [2], the “EC50 … (GenScript, NFkB luciferase)” value turned out to be 1.18 µg/mL.

B12: humanized antibody 225H7D12 VH1.4 + VL1.2 (antibody, V domains shown)
VH: B10 VH with R38K, M70F, S77N
VL: B10 VL
Take B12: the “EC50 … (GenScript, NFkB luciferase)” value in assay [2] was 1.46 µg/mL.

B13: anti-GITR mouse monoclonal antibody 134D7B3 (antibody, V domains shown)
VH: QVQLQQSGAELVRPGTSVKVSCKASGYAFNNYVIEWVKQRPGQGLEWIGVIYPGNGGSDYNEKFKVKAKLTADKSSSTAYMQLSSLTSDDSAVYFCARFYYFGSSYAMDYWGQGTSVTVSS
VL: DIQMTQTTSSLSASLGDRVTISCRASQDISNYLNWYQQKPDGTIKLLIYYTSRLHSGVPSRFSGSGSGTDYSLTITNLEQEDIATYFCQQGNTLPFTFGSGTKLEIK
Turning to B13, the “EC50 … (luciferase)” value in assay [1] was 1.05 µg/mL.

B14: chimeric antibody 225H7D12 (human IgG1) (antibody, V domains shown)
VH: QVQLQQSGAEVMKPGASVKLSCKTTGYRFTGYWIEWVKQRPGHGLEWIGEILPGSGVSNNNEKFRDKATFTADTSSNTAYIQLSSLTTDDSAIYYCARKASYYTMDYWGQGTSVTVSS
VL: QIVLTQSPAIMSASLGERVTMTCTASSSVSSFYFHWYQQKPGSSPKLWIYSISNLASGVPTRFSGSGSGTSYSLTISSMEAEDAATYYCHQYHRSPRTFGGGTKLEIKR
Turning to B14, in assay [3], the “Bottom, GITR functional reporter gene assay” value was determined as 16800; the “EC50, GITR functional reporter gene assay” value was found to be 0.0796 µg/mL; the “LogEC50, GITR functional reporter gene assay” value was -1.1; the “Span, GITR functional reporter gene assay” value was 37000. Also, the “Top, GITR functional reporter gene assay” value in assay [3] was determined as 53800. Further, the “EC50 … (GenScript, NFkB luciferase)” value in assay [2] came to 1.26 µg/mL.

B15: anti-GITR mouse monoclonal antibody 225H7D12 (antibody, V domains shown)
VH: B14 VH
VL: QIVLTQSPAIMSASLGERVTMTCTASSSVSSFYFHWYQQKPGSSPKLWIYSISNLASGVPTRFSGSGSGTSYSLTISSMEAEDAATYYCHQYHRSPRTFGGGTKLEIK
On to B15, for which the “EC50 … (luciferase)” value in assay [1] turned out to be 0.0796 µg/mL.

(Values after patent US20230064703A1 (NANJING GENSCRIPT BIOTECH, published 2023).)
